Experimental data reported in patent US20230220059A1 (CRISPR THERAPEUTICS, published 2023).

Columns and labels:
[1] = biological target: T1, mouse BCMA (mouse, UniProt O88472 1-49, limits assumed); assay: not described (statement within Example 5)
T1 construct: also called murine BCMA
T1 chain (looked up): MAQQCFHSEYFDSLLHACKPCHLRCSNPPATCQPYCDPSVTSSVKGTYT

[2] = biological target: T2, biotinylated recombinant human BCMA (Acro Biosystems Cat: #BC7-H82F0) (human, UniProt Q02223 1-54, biotinylated); assay: flow cytometry; CTX120 cells stained with biotinylated BCMA and fluorescent streptavidin
T2 construct: Bought reagent; Detected with fluorescent streptavidin
T2 sequence (looked up): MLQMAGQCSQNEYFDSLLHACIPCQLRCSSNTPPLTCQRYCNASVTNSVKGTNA
Method: The resultant genetically engineered T cells were characterized for incorporation of the desired gene edits: loss of TCR, loss of MHC I expression, and expression of an anti-BCMA CAR. Approximately one week after gene-editing, allogeneic T cells were assessed for surface expression of TCR, β2M, and anti-BCMA CAR using flow cytometry. The allogeneic cells were stained with biotinylated recombinant human BCMA (Acro Biosystems Cat: #BC7-H82F0) and tagged with fluorescent streptavidin and with fluorescent antibodies targeting cell surface markers. The percentage of cells that were TCR⁻, β2M⁻, and anti-BCMA CAR⁺ was determined. Nine lots of CTX120 cells were prepared from eight healthy donors.

binding result [1]: no binding
binding result [2]: binds
B1: anti-BCMA CAR (CTX-166b) expressed on CTX120 cells (other)
chain: QVQLVQSGAELKKPGASVKVSCKASGNTLTNYVIHWVRQAPGQRLEWMGYILPYNDLTKYSQKFQGRVTITRDKSASTAYMELSSLRSEDTAVYYCTRWDWDGFFDPWGQGTTVTVSSGGGGSGGGGSGGGGSEIVMTQSPATLSVSPGERASISCRASQSLVHSNGNTHLHWYQQRPGQAPRLLIYSVSNRFSEVPARFSGSGSGTDFTLTISSVESEDFAVYYCSQTSHIPYTFGGGTKLEIKSAAAFVPVFLPAKPTTTPAPRPPTPAPTIASQPLSLRPEACRPAAGGAVHTRGLDFACDIYIWAPLAGTCGVLLLSLVITLYCNHRNRKRGRKKLLYIFKQPFMRPVQTTQEEDGCSCRFPEEEEGGCELRVKFSRSADAPAYQQGQNQLYNELNLGRREEYDVLDKRRGRDPEMGGKPRRKNPQEGLYNELQKDKMAEAYSEIGMKGERRRGKGHDGLYQGLSTATKDTYDALHMQALPPR
notes: TRAC and B2M disrupted; also called CTX120 anti-BCMA CAR
